Experimental data: paper PMC3682478

Tests used:
Assay in all cases: kinetic pause assay
[1] = target: NusA NTD-S1;RNA polymerase core (Escherichia coli;Escherichia coli, UniProt P0AFF6;P0A7Z4;P0A8V2;P0A8T7 1-200;1-329;1-1342;1-1407, |)
[2] = target: NusA NTD-S1-KH;RNA polymerase core (Escherichia coli;Escherichia coli, UniProt P0AFF6;P0A7Z4;P0A8V2;P0A8T7 1-348;1-329;1-1342;1-1407, |)
[3] = target: NusA NTD;RNA polymerase core (Escherichia coli;Escherichia coli, UniProt P0AFF6;P0A7Z4;P0A8V2;P0A8T7 1-137;1-329;1-1342;1-1407, |)

Sequence of NusA NTD-S1;RNA polymerase core (P0AFF6 1-200, chain 1 of 4): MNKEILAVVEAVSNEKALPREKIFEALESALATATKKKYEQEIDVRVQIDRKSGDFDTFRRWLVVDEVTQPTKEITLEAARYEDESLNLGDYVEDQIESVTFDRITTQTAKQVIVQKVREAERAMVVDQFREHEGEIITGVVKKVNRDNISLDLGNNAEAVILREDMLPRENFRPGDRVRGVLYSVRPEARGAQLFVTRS
Sequence of NusA NTD-S1;RNA polymerase core (P0A7Z4 whole entry, chain 2 of 4): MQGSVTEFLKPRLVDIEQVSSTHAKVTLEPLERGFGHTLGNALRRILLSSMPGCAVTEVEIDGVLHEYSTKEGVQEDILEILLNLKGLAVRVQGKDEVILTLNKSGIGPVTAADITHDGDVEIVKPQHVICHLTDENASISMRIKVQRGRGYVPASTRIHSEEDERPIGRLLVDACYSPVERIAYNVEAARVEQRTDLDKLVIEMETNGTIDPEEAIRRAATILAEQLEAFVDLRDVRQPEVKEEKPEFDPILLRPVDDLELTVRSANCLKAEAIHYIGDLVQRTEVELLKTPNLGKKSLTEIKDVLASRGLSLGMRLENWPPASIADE
Sequence of NusA NTD-S1;RNA polymerase core (P0A8V2 whole entry, chain 3 of 4): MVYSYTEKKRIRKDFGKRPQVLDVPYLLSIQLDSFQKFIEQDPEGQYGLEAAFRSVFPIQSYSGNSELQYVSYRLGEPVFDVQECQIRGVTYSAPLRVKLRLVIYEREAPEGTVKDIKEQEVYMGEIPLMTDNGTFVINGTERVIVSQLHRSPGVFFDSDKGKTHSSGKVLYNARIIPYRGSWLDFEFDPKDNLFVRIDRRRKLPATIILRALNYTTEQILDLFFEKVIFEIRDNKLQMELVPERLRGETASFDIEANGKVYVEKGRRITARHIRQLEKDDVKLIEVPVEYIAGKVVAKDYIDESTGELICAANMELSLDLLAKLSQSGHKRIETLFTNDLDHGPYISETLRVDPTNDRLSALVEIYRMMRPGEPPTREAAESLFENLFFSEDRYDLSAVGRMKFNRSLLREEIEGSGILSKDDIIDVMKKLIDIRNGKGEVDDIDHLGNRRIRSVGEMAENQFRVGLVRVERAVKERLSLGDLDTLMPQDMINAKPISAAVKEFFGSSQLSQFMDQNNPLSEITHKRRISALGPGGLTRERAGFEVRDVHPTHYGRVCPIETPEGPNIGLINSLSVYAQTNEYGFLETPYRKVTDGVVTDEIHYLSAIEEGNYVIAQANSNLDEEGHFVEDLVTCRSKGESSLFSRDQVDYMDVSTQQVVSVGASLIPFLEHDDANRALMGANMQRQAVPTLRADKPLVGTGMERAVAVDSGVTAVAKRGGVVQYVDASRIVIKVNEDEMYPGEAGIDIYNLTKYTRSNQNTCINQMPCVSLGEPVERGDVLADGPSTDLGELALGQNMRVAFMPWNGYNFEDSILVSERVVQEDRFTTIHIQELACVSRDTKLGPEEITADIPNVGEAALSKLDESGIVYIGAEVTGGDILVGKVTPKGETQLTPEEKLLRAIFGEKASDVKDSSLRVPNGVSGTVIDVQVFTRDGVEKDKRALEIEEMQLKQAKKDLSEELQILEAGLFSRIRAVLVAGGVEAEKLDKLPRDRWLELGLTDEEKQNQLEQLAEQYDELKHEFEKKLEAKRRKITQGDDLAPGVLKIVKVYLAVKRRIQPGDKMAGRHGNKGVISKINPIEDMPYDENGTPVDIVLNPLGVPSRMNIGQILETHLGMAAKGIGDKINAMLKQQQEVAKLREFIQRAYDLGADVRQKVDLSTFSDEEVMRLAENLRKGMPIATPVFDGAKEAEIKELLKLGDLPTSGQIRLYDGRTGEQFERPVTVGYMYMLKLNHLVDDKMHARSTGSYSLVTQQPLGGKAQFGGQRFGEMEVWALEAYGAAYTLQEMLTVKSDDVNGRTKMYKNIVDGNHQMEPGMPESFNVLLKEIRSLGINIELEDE
Sequence of NusA NTD-S1;RNA polymerase core (P0A8T7 whole entry, chain 4 of 4): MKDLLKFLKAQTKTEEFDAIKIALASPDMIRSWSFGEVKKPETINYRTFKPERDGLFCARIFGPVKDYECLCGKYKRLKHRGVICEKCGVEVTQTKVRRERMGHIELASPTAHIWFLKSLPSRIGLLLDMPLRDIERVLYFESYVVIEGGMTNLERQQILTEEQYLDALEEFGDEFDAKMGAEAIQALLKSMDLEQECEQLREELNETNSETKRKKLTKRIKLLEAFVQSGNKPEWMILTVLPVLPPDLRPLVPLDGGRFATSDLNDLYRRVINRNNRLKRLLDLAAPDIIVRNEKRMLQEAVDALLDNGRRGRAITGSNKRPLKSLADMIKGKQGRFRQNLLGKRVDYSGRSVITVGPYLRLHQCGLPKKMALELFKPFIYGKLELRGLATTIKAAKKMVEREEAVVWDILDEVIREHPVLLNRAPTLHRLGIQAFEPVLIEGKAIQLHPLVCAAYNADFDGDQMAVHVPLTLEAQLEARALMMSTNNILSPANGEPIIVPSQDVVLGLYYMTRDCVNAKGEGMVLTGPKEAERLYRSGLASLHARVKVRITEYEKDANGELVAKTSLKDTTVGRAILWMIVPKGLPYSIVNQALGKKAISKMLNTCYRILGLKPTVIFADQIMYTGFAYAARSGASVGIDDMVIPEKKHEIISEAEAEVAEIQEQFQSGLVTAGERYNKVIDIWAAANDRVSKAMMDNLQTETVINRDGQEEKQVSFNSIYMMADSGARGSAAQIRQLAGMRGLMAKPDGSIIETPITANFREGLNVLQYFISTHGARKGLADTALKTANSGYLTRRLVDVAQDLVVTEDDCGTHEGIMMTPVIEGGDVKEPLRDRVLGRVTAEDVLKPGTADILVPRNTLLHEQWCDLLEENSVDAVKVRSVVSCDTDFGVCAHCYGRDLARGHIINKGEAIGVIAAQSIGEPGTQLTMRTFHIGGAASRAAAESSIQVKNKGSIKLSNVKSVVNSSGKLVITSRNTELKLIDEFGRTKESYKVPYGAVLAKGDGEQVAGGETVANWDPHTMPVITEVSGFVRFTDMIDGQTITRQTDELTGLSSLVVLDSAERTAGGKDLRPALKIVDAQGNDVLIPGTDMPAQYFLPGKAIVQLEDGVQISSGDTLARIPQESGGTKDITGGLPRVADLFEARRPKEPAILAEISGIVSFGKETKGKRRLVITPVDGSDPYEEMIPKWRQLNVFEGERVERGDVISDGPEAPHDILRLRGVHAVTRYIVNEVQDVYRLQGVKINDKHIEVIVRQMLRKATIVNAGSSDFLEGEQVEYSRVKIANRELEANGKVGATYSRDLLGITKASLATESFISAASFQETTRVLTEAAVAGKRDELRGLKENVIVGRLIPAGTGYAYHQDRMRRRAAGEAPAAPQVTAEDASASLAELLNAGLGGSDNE

B1: his PTC scaffold (RNA at U29) (mixed)
DNA 1: GGTCAGTACGTCCATTCGATCTTCGGAAGAGATTCAGAG
DNA 2: CTCTGAATCTCTTCCAGCACACATCAGGACGTACTGACC
RNA: CCUGACUAGUCUUUCAGGCGAUGUGUGCU
Ki [1]: 74.6 ± 19.4 nM
Ki [2]: 11.8 ± 8.7 nM
Ki [3]: 55.4 ± 27.8 nM
